{"source": "IntAct's records for PubMed 19860830", "parents": {"B1": {"name": "Casein kinase I isoform alpha (Oryctolagus cuniculus (Rabbit)), P67828 (parent)", "chain": "MASSSGSKAEFIVGGKYKLVRKIGSGSFGDIYLAINITNGEEVAVKLESQKARHPQLLYESKLYKILQGGVGIPHIRWYGQEKDYNVLVMDLLGPSLEDLFNFCSRRFTMKTVLMLADQMISRIEYVHTKNFIHRDIKPDNFLMGIGRHCNKLFLIDFGLAKKYRDNRTRQHIPYREDKNLTGTARYASINAHLGIEQSRRDDMESLGYVLMYFNRTSLPWQGLKAATKKQKYEKISEKKMSTPVEVLCKGFPAEFAMYLNYCRGLRFEEAPDYMYLRQLFRILFRTLNHQYDYTFDWTMLKQKAAQQAASSSGQGQQAQTPTGF", "partner": "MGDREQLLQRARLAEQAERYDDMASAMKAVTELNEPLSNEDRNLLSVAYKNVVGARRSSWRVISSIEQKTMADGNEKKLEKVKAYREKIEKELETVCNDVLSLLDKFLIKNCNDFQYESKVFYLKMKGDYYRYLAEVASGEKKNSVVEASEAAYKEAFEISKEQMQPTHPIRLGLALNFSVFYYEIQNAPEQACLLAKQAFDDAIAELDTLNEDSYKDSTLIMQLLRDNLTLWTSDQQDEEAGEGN"}}}
{"variants_of": "B1", "details": "with 1433f_human YWHAH"}
{"variant": "S218A", "effect of a mutation on the interaction": "decreasing interaction"}
{"variants_of": "B1", "details": "with 1433f_human YWHAH", "remark": "another data set of the same source"}
{"variant": "S218A", "effect of a mutation on the interaction": "disrupting interaction"}
{"variant": "S242A", "effect of a mutation on the interaction": "disrupting interaction"}
